# B1: EplD6Des: Δ6 desaturase from Echium plantagineum, polypeptide of 438 amino acid residues, expressed in yeast from plasmid pXZP271 (protein, listed as Echium plantagineum)
# chain: MANAIKKYITAEELKKHDKAGDLWISIQGKIYDVSDWLKDHPGGNFPLLSLAGQEVTDAFVAFHSGTTWKLLEKFFTGYYLKDYSVSEVSKDYRKLVFEFNKMGLFDKKGHIVLVTVLFIAMLFGMSVYGVLFCEGVLVHLLAGGLMGFVWIQSGWIGHDAGHYIVMPDARLNKLMGIVAANCLSGISIGWWKWNHNAHHIACNSLDYDPDLQYIPFLVVSSKLFSSLTSHFYEKKLTFDSLSRFFVSHQHWTFYPVMCMARVNMFVQSLIMLLTKRNVFYRSQELLGLVVFWIWYPLLVSCLPNWGERVMFVVASLSVTGMQQVQFSLNHFSSSVYVGQPKGNDWFEKQTCGTLDISCPSWMDWFHGGLQFQVEHHLFPKLPRCHLRKISPFVMELCKKHNLSYNCASFSEANNMTLRTLRDTALQARDLTKPLPKNLVWEALNTHG
# System: yeast strain S288Cα
# Test: Heterologous expression of E. plantagineum Δ6-desaturase gene in yeast, conversion of fed fatty acids
# Format: cell-based
# Details: 20° C., 2-3 days
# Protocol: Expression experiments in yeast were carried out to confirm that the cloned E. platangineum gene (cDNA sequence provided as SEQ ID NO:25) encoded a Δ6-desaturase enzyme. The gene fragment was inserted as an XbaI-SacI fragment into the […] sites of the yeast expression vector pSOS (Stratagene) containing the constitutive ADH1 promoter, resulting in plasmid pXZP271. This was transformed into yeast strain S288Cα by a heat shock method and transformant colonies selected by plating on minimal media plates. For the analysis of enzyme activity, 2 mL yeast clonal cultures were grown to an O.D.600 of 1.0 in yeast minimal medium in the presence of 0.1% NP-40 at 30° C. with shaking. Precursor free-fatty acids, either linoleic or linolenic acid as 25 mM stocks in ethanol, were added so that the final concentration of fatty acid was 0.5 mM. The cultures were transferred to 20° C. and grown for 2-3 days with shaking. Yeast cells were harvested by repeated centrifugation and washing first with 0.1% NP-40, then 0.05% NP-40 and finally with water. Fatty acids were extracted and analyzed. The peak identities of fatty acids were confirmed by GC-MS.
molecule,measurement,setting,value
B1,LA converted to GLA,0.5 mM linoleic acid fed,Around 2.9%
same,ALA converted to SDA,0.5 mM linolenic acid fed,~2.3%

# From patent publication US11166479B2, “Feedstuffs for aquaculture comprising stearidonic acid” (COMMONWEALTH SCIENTIFIC AND INDUSTRIAL RESEARCH ORGANISATION, priority 2005, dated 2021)
